Experimental data published in article doi:10.1101/2023.03.09.531992 (bioRxiv, 2023).
Numbering of substitutions follows the chain as printed. No end group written: not given here.

Experiments:
[1] = biological target: T1, S. pombe αWD40 Arg300Ala mutant (S. pombe, UniProt Q96WV5 1-327, Arg300Ala); experiment: BLI
T1 sequence: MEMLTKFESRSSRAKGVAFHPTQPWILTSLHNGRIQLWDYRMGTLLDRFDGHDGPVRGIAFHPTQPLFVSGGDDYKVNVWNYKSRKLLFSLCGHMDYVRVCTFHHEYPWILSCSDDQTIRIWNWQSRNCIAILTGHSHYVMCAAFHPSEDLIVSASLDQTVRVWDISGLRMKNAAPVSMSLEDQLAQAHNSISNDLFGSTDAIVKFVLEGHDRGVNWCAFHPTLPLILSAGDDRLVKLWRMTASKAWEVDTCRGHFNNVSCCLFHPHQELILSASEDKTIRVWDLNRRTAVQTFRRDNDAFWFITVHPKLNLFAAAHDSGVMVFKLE

[2] = biological target: T2, S. pombe αWD40 Tyr139Ala mutant (S. pombe, UniProt Q96WV5 1-327, Tyr139Ala); experiment: BLI
T2 sequence: T1 sequence with Y139A, A300R

[3] = biological target: T3, S. cerevisiae β’WD40 domain (N-terminal WD40 domain of β’-COPI), wild type (S. cerevisiae, UniProt P41811 1-300); experiment: BLI
T3 sequence: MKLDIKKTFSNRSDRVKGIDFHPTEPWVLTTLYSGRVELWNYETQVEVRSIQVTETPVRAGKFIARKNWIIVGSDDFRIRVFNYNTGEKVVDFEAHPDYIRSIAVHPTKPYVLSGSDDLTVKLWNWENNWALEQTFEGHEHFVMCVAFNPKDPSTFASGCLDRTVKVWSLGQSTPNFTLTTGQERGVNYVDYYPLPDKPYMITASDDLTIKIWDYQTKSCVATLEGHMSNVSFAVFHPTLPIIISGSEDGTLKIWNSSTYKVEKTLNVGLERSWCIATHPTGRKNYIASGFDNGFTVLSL

[4] = biological target: T4, S. pombe αWD40 Arg13Ala mutant (S. pombe, UniProt Q96WV5 1-327, Arg13Ala); experiment: BLI
T4 sequence: T1 sequence with R13A, A300R

[5] = biological target: T5, S. pombe αWD40 domain (N-terminal WD40 domain of α-COPI), wild type (S. pombe, UniProt Q96WV5 1-327); experiment: BLI
T5 sequence: T1 sequence with A300R

[6] = biological target: T3, S. cerevisiae β’WD40 domain (N-terminal …); experiment: NMR titration

B1: clientized (Thr1273Glu) SARS-CoV-2 S tail heptapeptide (residues 1267-1273), biotinylated (peptide)
peptide: GVKLHYE
modifications: also: biotinylated
Kd [1]: 4.2 ± 0.4 µM
Kd [2]: 3.8 ± 0.36 µM
Kd [3]: 2.3 ± 0.23 µM

B2: wild-type SARS-CoV-2 S tail heptapeptide (residues 1267-1273), biotinylated (peptide)
peptide: GVKLHYT
modifications: also: biotinylated
Kd [1]: 3.6 ± 0.4 µM
binding result [4]: binds

B3: amidated clientized (Thr1273Glu) S heptapeptide (C-terminal main chain carboxylate amidated), biotinylated (peptide)
peptide: GVKLHYE-NH2
modifications: also: biotinylated
binding result [5]: binds

B4: 15N-labeled clientized (Thr1273Glu) SARS-CoV-2 S C-terminal tail peptide (NMR) (peptide)
peptide: CCKFDEDDSEPVLKGVKLHYE
modifications: cysteine pairing not given here; also: 15N isotope label
binding result [6]: binds
